Earlier results in paper PMC12368481, “Discovery of a Phenylalanine‐Derived Natural Compound as a Potential Dual Inhibitor of MDM2 and MDMX” (Chemmedchem, 2025).
Read-outs that look alike come from different tables or passages of the source.

Key:
[1] = biological target: p53 peptide (Homo sapiens) (UniProt P04637)
[2] = biological target: p53 peptide (Homo sapiens) (UniProt P04637); remark: listed apart in the source

Sequence of p53 peptide (Homo sapiens) (P04637 whole entry): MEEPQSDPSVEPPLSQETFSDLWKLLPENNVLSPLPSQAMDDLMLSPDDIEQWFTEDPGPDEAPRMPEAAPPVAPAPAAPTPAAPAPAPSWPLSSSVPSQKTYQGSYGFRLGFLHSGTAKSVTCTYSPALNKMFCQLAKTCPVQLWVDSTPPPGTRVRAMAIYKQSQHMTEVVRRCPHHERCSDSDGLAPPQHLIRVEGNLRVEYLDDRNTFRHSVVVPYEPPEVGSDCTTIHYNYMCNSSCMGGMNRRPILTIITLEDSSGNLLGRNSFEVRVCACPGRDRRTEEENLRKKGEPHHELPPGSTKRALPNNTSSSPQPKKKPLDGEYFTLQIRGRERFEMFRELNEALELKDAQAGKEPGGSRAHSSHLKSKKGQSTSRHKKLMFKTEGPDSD
Sequence of MDMX (O15151 whole entry): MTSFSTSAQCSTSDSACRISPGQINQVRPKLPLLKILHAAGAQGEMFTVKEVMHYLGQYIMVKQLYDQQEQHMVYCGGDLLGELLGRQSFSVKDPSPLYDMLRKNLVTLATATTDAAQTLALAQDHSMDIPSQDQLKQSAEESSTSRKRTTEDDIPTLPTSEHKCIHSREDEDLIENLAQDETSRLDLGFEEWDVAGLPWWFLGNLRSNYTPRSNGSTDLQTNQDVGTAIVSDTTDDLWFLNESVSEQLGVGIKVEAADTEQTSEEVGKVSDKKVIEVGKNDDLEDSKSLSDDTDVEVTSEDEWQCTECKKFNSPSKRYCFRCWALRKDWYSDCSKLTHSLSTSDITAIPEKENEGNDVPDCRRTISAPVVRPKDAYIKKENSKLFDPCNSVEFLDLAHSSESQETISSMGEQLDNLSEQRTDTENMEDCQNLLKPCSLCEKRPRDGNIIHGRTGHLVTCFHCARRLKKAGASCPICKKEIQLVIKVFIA
Sequence of MDM2 (Q00987 whole entry): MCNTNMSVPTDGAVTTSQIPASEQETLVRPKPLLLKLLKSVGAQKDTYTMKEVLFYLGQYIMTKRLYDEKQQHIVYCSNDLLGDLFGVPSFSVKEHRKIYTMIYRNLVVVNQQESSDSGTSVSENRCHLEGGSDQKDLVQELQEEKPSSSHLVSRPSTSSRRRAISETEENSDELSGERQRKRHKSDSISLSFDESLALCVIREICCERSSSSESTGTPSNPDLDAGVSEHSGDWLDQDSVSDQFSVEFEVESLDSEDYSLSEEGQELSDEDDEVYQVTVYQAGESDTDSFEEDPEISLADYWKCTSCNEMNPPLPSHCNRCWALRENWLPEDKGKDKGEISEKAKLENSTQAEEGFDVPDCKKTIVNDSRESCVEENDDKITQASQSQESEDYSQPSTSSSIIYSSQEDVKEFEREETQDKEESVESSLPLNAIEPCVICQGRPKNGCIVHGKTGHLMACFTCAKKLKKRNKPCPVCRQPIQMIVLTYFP

| Kd [1] [nM] | Kd [2] [nM] | Substance |
| --- | --- | --- |
| 1110 | – | MDM2 (from UniProt Q00987) |
| – | 340 | MDMX (from UniProt O15151) |
